Common to all, as to assay: EMSA
(A gel shift assay detects complexes by their altered migration in electrophoresis.)

Data set [1] concerns the target T1, D2 helicase WT (His-MBP fusion) (Bacteriophage T5, UniProt Q6QGH9 1-928).
T1 sequence: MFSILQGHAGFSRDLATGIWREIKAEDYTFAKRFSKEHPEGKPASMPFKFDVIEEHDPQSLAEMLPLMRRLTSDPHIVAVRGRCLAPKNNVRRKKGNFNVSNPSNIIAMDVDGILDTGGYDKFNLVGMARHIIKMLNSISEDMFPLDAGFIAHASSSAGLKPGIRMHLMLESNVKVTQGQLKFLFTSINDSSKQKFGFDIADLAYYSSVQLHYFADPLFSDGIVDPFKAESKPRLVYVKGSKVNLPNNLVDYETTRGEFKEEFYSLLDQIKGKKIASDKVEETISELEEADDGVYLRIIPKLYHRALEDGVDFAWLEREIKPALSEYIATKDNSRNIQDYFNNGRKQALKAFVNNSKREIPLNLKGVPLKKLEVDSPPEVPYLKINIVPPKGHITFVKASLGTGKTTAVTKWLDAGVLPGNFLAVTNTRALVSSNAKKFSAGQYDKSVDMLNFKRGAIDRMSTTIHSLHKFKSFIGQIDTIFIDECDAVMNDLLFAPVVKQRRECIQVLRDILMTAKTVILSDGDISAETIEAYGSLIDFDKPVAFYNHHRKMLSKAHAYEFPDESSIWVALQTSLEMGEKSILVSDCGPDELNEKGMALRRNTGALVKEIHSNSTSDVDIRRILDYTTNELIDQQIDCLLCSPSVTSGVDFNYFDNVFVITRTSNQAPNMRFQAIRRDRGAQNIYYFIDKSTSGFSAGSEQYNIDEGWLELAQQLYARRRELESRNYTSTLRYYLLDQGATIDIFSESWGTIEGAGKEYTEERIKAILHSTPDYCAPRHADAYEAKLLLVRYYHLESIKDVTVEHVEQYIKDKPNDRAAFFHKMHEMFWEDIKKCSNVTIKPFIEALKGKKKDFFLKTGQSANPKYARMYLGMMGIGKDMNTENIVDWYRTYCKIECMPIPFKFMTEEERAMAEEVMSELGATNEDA

In data set [2] the target is T1, D2 helicase WT (His-MBP fusion). This is another data set of the same source.
The target in data set [3] is T2, D2 helicase K405E (His-MBP fusion) (Bacteriophage T5, UniProt Q6QGH9 1-928, K405E).
T2 sequence: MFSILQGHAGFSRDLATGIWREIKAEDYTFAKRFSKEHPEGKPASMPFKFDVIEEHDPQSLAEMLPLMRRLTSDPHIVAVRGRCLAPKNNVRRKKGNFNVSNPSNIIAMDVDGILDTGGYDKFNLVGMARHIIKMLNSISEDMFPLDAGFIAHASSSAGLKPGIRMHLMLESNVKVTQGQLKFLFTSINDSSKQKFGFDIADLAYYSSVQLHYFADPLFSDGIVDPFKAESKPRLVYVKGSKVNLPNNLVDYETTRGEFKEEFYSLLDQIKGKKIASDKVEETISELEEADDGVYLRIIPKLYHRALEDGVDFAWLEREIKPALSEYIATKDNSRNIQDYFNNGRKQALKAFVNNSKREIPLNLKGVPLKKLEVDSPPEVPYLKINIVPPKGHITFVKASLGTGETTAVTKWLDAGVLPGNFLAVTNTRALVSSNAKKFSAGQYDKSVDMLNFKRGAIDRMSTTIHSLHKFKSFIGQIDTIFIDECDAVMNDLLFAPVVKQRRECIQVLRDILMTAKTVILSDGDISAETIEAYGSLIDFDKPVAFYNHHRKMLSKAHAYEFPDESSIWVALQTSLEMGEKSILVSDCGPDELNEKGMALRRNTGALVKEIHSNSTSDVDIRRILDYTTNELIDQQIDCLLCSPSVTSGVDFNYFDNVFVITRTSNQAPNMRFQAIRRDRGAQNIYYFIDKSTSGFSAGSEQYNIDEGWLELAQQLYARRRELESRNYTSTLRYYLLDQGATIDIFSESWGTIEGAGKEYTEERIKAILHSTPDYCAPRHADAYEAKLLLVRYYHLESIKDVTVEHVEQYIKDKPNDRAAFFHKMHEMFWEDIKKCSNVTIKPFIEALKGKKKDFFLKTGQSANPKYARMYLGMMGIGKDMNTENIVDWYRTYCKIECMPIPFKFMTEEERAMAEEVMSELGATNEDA

Like-named read-outs stand apart in the source and are kept apart here.

As to TTTTTTTTTTTTTTTTTTTTTTTTTTTTTTTTTTT (ssDNA) [T35], in data set [1], the binding result is reported as “binds”.

In the case of TTTTTTTTTTTTTTTTTTTTTTTTT (ssDNA) [T25], the binding result in data set [2] and in data set [3] was “binds” in each case.

B1: T55 (ssDNA)
DNA: TTTTTTTTTTTTTTTTTTTTTTTTTTTTTTTTTTTTTTTTTTTTTTTTTTTTTTT
As to B1, the binding result in data set [1] is listed as “binds”.

Source of the values: paper PMC3632103.
